Eleven molecules from patent publication US20160009788A1 (UNITED STATES OF AMERICA AS REPRESENTED BY THE SECRETARY …, published 2016) can be followed below.

The target in assay [1] is T1, Norwalk virus (NV, GI.1) recombinant virus-like particles (capsid protein VP1) (Norwalk virus, UniProt Q83884 1-530).
T1 sequence: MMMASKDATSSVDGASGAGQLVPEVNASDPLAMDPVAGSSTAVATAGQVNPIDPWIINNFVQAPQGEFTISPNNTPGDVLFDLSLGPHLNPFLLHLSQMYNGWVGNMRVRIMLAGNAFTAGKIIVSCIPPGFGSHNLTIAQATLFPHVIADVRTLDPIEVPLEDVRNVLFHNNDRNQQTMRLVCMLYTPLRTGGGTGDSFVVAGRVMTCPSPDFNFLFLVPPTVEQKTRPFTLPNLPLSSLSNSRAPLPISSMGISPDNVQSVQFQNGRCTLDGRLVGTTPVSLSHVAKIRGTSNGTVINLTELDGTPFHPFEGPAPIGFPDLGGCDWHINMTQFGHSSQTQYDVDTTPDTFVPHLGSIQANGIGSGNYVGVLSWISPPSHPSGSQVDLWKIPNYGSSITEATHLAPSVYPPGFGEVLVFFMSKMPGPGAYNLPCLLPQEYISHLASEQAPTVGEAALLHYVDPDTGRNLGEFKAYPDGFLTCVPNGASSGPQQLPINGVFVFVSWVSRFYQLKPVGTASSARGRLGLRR

Assay [2] has as its target MD145 virus-like particle (GII.4, capsid protein VP1) (Norovirus GII.4 strain MD145-12).
Assay [3] has the same target. Kind of assay: SPR (Biacore 1000), Fab on MD145 virus-like particle. A general note: Surface plasmon resonance follows binding to a sensor surface in real time, without labels.
The target of assay [4] is T2, bovine serum albumin (bovine, UniProt P02769 25-607).
T2 construct: Control antigen; also called BSA
Kind of assay: ELISA, antigen on the solid phase, soluble Fab.

The target of assay [5] is T2, bovine serum albumin. Kind of assay: ELISA, antigen coated directly on the plate.

T2 sequence (P02769 25-607 limits assumed): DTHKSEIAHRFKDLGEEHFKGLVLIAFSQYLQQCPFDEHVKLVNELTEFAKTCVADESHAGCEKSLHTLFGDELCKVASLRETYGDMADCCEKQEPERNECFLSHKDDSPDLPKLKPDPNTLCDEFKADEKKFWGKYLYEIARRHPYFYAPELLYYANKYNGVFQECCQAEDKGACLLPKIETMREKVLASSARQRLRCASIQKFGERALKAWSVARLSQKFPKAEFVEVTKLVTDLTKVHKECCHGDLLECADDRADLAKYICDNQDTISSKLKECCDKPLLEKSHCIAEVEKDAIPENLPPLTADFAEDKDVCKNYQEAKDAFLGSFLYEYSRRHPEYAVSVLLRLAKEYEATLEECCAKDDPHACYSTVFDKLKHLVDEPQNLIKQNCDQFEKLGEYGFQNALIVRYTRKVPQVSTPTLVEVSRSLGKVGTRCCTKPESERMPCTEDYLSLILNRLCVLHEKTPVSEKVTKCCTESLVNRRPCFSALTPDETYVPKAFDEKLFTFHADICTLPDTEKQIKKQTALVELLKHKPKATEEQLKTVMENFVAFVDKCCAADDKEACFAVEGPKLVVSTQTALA

B1: anti-NV IgG G4 (antibody, V domains shown)
VH: EVQLEESGGGLVKPGGSLRLSCAASGFTFSHYVMYWVRQAPEKGLEWVSTISGSGSSTWYPDSVKGRFTVSRDNSKNTLYLQMNSLRGDDTAVYYCARLQGQLVYWGLGTLVTVS
VL: ELQMTQSPSTLSASVGDRVTITCRASQGISSWLAWYQQKPGRAPKLLIYKSSTLESGVPSRFSGSGSGTEFTLTISSLQPDDFATYFCQQYSSNPPLTFGGGTKVEIKR
The term IC50 denotes the concentration that inhibits the measured activity by half. As for B1, in assay [1], the concentration for half-maximal inhibition (IC50) is ~2.8 nM.

B2: anti-NoV GII.4 mAb D4 (IgG) (antibody, V domains shown)
VH: EVQLVESGPGLVKPSETLSLTCAVSGASIRRANWWGWIRQAPGKGLEWLGSIFINAGTIYNPSLTGRVTVSADTSKNLFSLKLGSVTAADTAVYYCVKSYGDGDDNYNSFYYYMDVWGKGTSVIVSS
VL: DVVMTQSPSSLSASVGDRVTITCRASQDIRNNLAWYQHKPGKAPKLLIYYASKLQSGVPLRFSGSGSGTDYTLFISSLQPEDFATYYCQQYKTDTPYSFGQGTKVDIKR
Consider B2, for which, in assay [2], the IC50 (read off the curve) is 1 µg/mL.

B3: anti-GII.4 NV Fab D4 (Fab, V domains shown)
VH: EVQLVESGPGLVKPSETLSLTCAVSGASIRRANWWGWIRQAPGKGLEWLGSIFINAGTIYNPSLTGRVTVSADTSKNLFSLKLGSVTAADTAVYYCVKSYGDGDDNYNSFYYYMDVWGKGTSVIVSS
VL: DVVMTQSPSSLSASVGDRVTITCRASQDIRNNLAWYQHKPGKAPKLLIYYASKLQSGVPLRFSGSGSGTDYTLFISSLQPEDFATYYCQQYKTDTPYSFGQGTKVDIKR
By Kd is commonly meant the constant that tells how readily two partners part at equilibrium. In general, koff refers to a measure of how fast the partners let go of each other. A high value points to a short-lived complex. The kon is the second-order rate constant of association. A high value points to faster complex formation. Consider B3, for which, in assay [3], the dissociation constant Kd is 0.121 nM, the koff amounted to 0.000178 s⁻¹ and the on-rate constant (kon) was determined as 1.47e+06 M⁻¹ s⁻¹.

B4: anti-NV Fab F11 (Fab, V domains shown)
VH: EVQLVETGGSLVQPGGSLRLSCAASGFSVSIYHMSWVRQAPGKGLEWVSLLYSGGSTYYADSVKGRFTISRDNSKNTLYLQMNSLRAEDTAVYYCARDYSGSWVGDEARSYYYYYYMDVWGKGTTVTVS
VL: ELQVTQSPSSLSASVGDRVTITCQASQDISYYLNWYQQRPGKVPKLLIYSASYLHSGVPSRFSGSGSGTDFTLTISSLQPEDVATYYCQRTYNAPYTFGQGTKVEIKR
Consider B4, for which the binding result with bovine serum albumin [4] is recorded as “no binding”.

B5: anti-GII.4 NV Fab C9 (Fab, V domains shown)
VH: EVQLEESGGVLVKPGGSLRLSCAASGFTFSSHAMHWVRQAPGKGLEWVAIINSGHRADYADSVKDRFTISRDNSKNTLYLQMDSLRPEDTAFYYCAREGDQQDVAD
VL: ELTQSPSTLSASVGDRVTITCRASEDIMSYLAWYQQKPAKAPRLLIYYASSLQSGVPSRFSGSGSGTEFTLTISSLQPEDFATYYCQQLHTFPITFGPGTRLDIKRT
In assay [3], B5 gave a dissociation constant Kd of 27.7 nM, a koff of 0.00382 s⁻¹ and a kon of 138000 M⁻¹ s⁻¹.

B6: anti-NV Fab E5 (Fab, V domains shown)
VH: EVQLEQSGGGLIKPGGSLRLSCAASGFTFTKYVMHWVRQAPEKGLQWVSAIGGSGGSAWYADSVKGRFTISRDNSKNTLYLQMNSLRAEDTAVYYCARDHARYSGYNSPHEVDSWGQGTLVAVS
VL: ELELTQSPSSLSASVGDRVTITCRASQGISNYLAWYQQKPGKVPKLLIYAASTLQSGVPSRFSGSGSGTDFTLTISSLQPEDVATYYCQKYNSAPLTFGGGTKVEIKR
notes: also called ES [sic]
As to B6, the binding result with bovine serum albumin [4] was “no binding”.

B7: anti-NoV GII.4 mAb G3 (IgG) (antibody, V domains shown)
VH: EVQLEQSGGGLVKPGGSLRLSCAGSGFSFSAHTINWVRQAPGKGLEWVGFIRSQAQGGTREYAASVKGRIILSRDDSENSAYLQMNSLNTGDTAVYYCARDSSRGYYSYYLDVWGKGTTVTVSS
VL: ELTQSPSSLSASVGDRVTITCRASQGISNRLNWYQQKPGKAPKLLIYDASSLESGVPSRFSGSGSGTDFTLTISSQQPEDFATYYCQQFNSYPLTFGGGTKVEIKR
With B7, in assay [2], the IC50 (read off the curve) amounted to 1 µg/mL.

B8: anti-GII.4 NV Fab G3 (Fab, V domains shown)
VH: EVQLEQSGGGLVKPGGSLRLSCAGSGFSFSAHTINWVRQAPGKGLEWVGFIRSQAQGGTREYAASVKGRIILSRDDSENSAYLQMNSLNTGDTAVYYCARDSSRGYYSYYLDVWGKGTTVTVSS
VL: ELTQSPSSLSASVGDRVTITCRASQGISNRLNWYQQKPGKAPKLLIYDASSLESGVPSRFSGSGSGTDFTLTISSQQPEDFATYYCQQFNSYPLTFGGGTKVEIKR
B8: in assay [3], the Kd was found to be 2.61 nM, the dissociation rate constant (koff) amounted to 0.000421 s⁻¹ and the kon stood at 162000 M⁻¹ s⁻¹.

B9: anti-GII.4 NV Fab B72 (Fab, V domains shown)
VH: EVQLEQSGAEVKKPGSSVKVSCKISGGTFSRHPISWVRQAPGQGLLWMGAIILRAGTTKYEQRFQGRITITADESTGTAYMELHSLTSEDTGLYFCATDRMGTFDELLFDSWGQGTLVTVSS
VL: ELQMTQSPASLSASVGDRVTITCRASQGIRNNLGWYQQKPGKPPKLLIYAASTLQSGVPSRFSGSGSGTGFTLTISSLQPEDFATYYCLQDYDFPLTFGGGTKVEIKR
Turning to B9, in assay [3], the Kd was 0.351 nM, the koff turned out to be 5.66e-05 s⁻¹ and the association rate constant (kon) was found to be 161000 M⁻¹ s⁻¹.

B10: anti-NV Fab D8 (Fab, V domains shown)
VH: EVQLEESGGGLVQPGGSLRVSCAASGFPFNGYWIHWVRQAPGKGLEWVSRVNSDGRITNFADSVMGRFTMSRDNAKSTVYLQMNSLRAEDTAMYYCSRGGYTGYPEGHWGQGTLVTVS
VL: ELQMTQSPSSLSAAVGDSVTITCRASQGISIHLAWYQQKPGKVPNLLIYAASTLQSGVPSRFSGSGSGTDFTLTINSLQPEVFATYYCQKYDSAPFTFGPGTKVDIKR
Regarding B10, the binding result in the assay with bovine serum albumin [5] was “no binding”.

B11: anti-NV Fab B7 (Fab, V domains shown)
VH: EVQLEESGGDLVQPGGSLTLSCAASGFTFSRYWMSWVRQAPGKGPEWVASIKKDGSETFYADSVKGRFIISRDIAKTSLYLQMNSLRADDTAVYYCLRAWYSSAYDFWGQGTLVTVS
VL: ELELTQSPSSLSASVGDRVTITCRASQSISNYLNWYQQKPGKAPNLLIYYASTLQSGVPSRFSGSGSGTDFTLTISSLQPEDFATYYCQHGYGAIAFGQGTRLEIKR
B11: the binding result with bovine serum albumin [4] is listed as “no binding”.
